This passage reports koff results from patent publication US20020127657A1.

This experiment deals with GST-fusion of the truncated CD2 tail (CD2221-282) (human) (UniProt P06729). The experiment in a line: NMR titration, estimate from line broadening in fast exchange.
GST-fusion of the truncated CD2 tail (CD2221-282) (human), sequence (P06729 245-306): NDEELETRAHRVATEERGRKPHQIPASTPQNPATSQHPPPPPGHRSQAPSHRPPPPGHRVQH

As to “purified binding domain of CD2BP2 comprising amino acids 256-341 (His-tagged, NMR sample)”, the koff (as a rule, the rate constant with which the complex falls apart) was greater than 1000 s⁻¹.
